Substitutions are numbered along the chain they refer to. Blank lines part the entries; values can stand above or below the binder they belong to.
Experiments:
[1] = target: T1, recombinant human C2a, C-terminal 6His-tag, made in house (CHO cell expression) (human, UniProt P06681 244-752); experiment: binding kinetics (BLI presumed)
T1 sequence: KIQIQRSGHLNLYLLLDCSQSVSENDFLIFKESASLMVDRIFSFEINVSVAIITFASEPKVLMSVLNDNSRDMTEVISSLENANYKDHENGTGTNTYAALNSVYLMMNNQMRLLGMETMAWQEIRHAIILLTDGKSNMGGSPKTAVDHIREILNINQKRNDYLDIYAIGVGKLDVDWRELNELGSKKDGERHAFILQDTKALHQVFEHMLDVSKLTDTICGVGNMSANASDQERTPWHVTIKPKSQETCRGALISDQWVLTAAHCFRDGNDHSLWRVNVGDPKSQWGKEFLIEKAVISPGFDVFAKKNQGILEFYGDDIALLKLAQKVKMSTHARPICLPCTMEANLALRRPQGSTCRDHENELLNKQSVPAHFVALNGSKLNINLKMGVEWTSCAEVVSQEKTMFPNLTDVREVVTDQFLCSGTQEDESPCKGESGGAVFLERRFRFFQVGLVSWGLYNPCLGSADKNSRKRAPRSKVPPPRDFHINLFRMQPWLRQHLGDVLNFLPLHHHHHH

[2] = target: T2, recombinant cyno C2a, C-terminal 6His-tag, made in house (CHO cell expression) (cynomolgus monkey, UniProt P06681 244-752 (human entry)); experiment: binding kinetics (BLI presumed)
T2 chain: T1 sequence with C18S, D68V, M73I, N84K, R112Q, E117K, H148Q

[3] = target: T1, recombinant human C2a, C-terminal …; experiment: ELISA
[4] = target: T2, recombinant cyno C2a, C-terminal …; experiment: ELISA
[5] = target: T3, recombinant human complement C2 (NP_000054.2), C-terminal 6His-tag, made in house (CHO cell expression) (human, UniProt P06681 21-752); experiment: BLI (Gator), antibody on probe; 600 s association at pH 7.4, 600 s dissociation at pH 5.8
T3 construct: a linker before the tag is not described; also called human C2; Human C2
T3 sequence: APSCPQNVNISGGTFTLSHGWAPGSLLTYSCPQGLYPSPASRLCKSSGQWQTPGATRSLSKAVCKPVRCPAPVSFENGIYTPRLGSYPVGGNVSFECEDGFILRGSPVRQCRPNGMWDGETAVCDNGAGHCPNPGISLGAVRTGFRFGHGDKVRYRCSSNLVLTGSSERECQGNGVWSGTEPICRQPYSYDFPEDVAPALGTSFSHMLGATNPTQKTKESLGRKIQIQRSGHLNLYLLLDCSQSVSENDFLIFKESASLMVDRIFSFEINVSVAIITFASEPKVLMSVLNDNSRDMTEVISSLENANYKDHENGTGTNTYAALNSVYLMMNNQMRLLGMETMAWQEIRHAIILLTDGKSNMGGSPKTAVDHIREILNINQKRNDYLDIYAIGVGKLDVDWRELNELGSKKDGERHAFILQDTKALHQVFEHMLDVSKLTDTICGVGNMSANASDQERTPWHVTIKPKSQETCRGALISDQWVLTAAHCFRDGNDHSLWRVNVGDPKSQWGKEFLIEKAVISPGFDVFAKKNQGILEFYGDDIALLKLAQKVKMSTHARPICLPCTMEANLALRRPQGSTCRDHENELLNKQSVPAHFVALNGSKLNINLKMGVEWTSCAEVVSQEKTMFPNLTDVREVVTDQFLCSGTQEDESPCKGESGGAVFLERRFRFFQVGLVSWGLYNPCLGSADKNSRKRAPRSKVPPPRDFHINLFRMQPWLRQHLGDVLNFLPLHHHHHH
Experimental: (§1) The histidine mutant constructs in Table 4 were tested for their pH-dependent dissociation from human C2. Probe-immobilized anti-C2 antibodies were incubated with C2 at pH 7.4 for 600s, followed by a 600s dissociation period in K Buffer at pH 7.4 or pH 5.8. The data were processed and analyzed by the Gator evaluation software.

[6] = target: T3, recombinant human complement C2 …; experiment: BLI (Gator), antibody on probe; 600 s association at pH 7.4, 600 s dissociation at pH 7.4
Experimental: as §1

[7] = target: T2, recombinant cyno C2a, C-terminal …; experiment: ELISA on cyno C2a, OD450nm against log Ab conc. (nmol/L)

- Kd [1]: 0.347 nM
- koff [1]: 6.68e-05 s⁻¹
- kon [1]: 193000 M⁻¹ s⁻¹
- Kd [2]: 0.376 nM
- koff [2]: 8.79e-05 s⁻¹
- kon [2]: 234000 M⁻¹ s⁻¹
- EC50 [3]: 0.117 nM
- EC50 [4]: 0.119 nM
B1: anti-C2 antibody 69.44 (antibody, IgG4, V domains shown)
VH: QVQLVQSGAEVKKPGASVKVSCKASGYSFTTYYMYWVRQAPGQGLEWMGIITPSGGSTTYAQKFQDRVTMTRDASTTTVYMELSSLRSEDTAVYYCARGYEGSYGFDHWGQGTLVTVSS
VL: SYELTQPPSVSLSPGQTASITCSGDKLGNKYTCWYQQKPGQSPVLVIYQDNKRPSGIPERFSGSNSGNTATLTISGTQAMDEADYYCQTWDSSTAVFGGGTKLTVL
notes: Recombinant

- Dissociation (%) pH 5.8 [5]: 8.2%
- Dissociation (%) pH 7.4 [6]: 3.59%
- binding result [7]: no binding (tested: 100 nmol/L)
B2: anti-C2 antibody 3.2 (antibody, IgG4, V domains shown)
VH: EVQLLESGGGLVQPGGSLRLSCAASGFTFRHYAMSWVRQAPGKGLEWVSLISGSGASTFYADSVKGRFTISRDNSENMLYLQMNSLRAEDTAVYYCAKDSLAVAGSEYFQHWGQGTLVTVSS
VL: SYVLTQAPSVSVAPGQTARITCGGNYFGGKSVHWYQQRPGQAPVLVVYDDSDRPSGIPERFSGSKSGNTATLAISRVEAGDEAAYYCQVYDTSSDHWVFGGGTKLTVL
notes: Recombinant; also called WT; "WT" 3.2
